Here are results for one substance from PMC12767022.

The target in this assay is MBP‐Spz, maltose‐binding protein‐tagged Spz (Drosophila melanogaster) (UniProt P48607).
Chain of UniProt P48607 (P48607 26-326): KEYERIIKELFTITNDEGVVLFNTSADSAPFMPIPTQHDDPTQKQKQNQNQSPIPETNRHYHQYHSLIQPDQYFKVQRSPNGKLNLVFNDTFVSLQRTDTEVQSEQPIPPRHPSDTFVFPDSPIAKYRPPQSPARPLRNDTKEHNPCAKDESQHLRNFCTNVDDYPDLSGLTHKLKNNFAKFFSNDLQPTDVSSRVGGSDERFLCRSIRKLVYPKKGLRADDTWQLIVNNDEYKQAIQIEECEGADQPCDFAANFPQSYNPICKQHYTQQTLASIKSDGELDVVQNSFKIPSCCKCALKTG

Turning to “GST‐ETS1, glutathione S‐transferase‐tagged ETS1 (enzyme)”, the degradation of Spz by purified ETS1 (SDS‐PAGE band intensity, 0–4 h, 1 mM each CoCl2 and CaCl2): about half within 1 h, 80% after 4 h amounted to 80%.
